In the supplement of paper PMC10724198:
± gives the standard deviation of the averaged measurements.

system: Saccharomyces cerevisiae; assay: protein stability index of tFT-peptide fusion (C-terminal peptide) (PSI (0-1 scale)); higher = more stable (slower turnover); conditions: genetic background: wild type; temperature: 30 C
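Also: PSI is a weighted mean of sequencing reads over stability bins, variants kept only with over 10 reads, mCherry proximal and sfGFP distal, peptide attached via GGGS linker.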

| Sequence | protein stability index |
| --- | --- |
| AGGRGVPSMGNG | 0.644 ± 0.033 |
| YRDSLLATNFFS | 0.694 ± 0.056 |
| LGVDFCRGVVVE | 0.654 ± 0.035 |
| GRGRWRGGVAVE | 0.802 ± 0.13 |
| GVVFGWAGYKGT | 0.677 ± 0.034 |
| KRKTKIEQDQRQ | 0.6704 ± 0.0056 |
| RKATGVLQVQDY | 0.749 ± 0.14 |
| PSSPPPPPPPPH | 0.71 ± 0.0097 |
| SLFRSSHPPRPP | 0.605 ± 0.034 |
| GRGGLGGWEWDR | 0.712 ± 0.034 |
| KDDHTLMTKYNA | 0.643 ± 0.025 |
| PPPRPTVPPGSR | 0.668 ± 0.014 |
| FALTHSRSPSTS | 0.799 ± 0.1 |
| RNRKQEKKENKN | 0.695 ± 0.022 |
| LGGGGKNGSERV | 0.696 ± 0.017 |
| SPRVSRRVLPSF | 0.6696 ± 0.0027 |
| PCPETPLLTRAA | 0.651 ± 0.0094 |
| HLSDAGSPDGAN | 0.628 ± 0.063 |
| RWSCLADQSANR | 0.7052 ± 0.0051 |
| GAGLWGGRGRRW | 0.6489 ± 0.0063 |
| LLSSIPSLMFYY | 0.667 ± 0.046 |
| PPHSALPLPPSP | 0.726 ± 0.039 |
| GGGGLREGGRWE | 0.743 ± 0.038 |
| SCLSLSGLPSPL | 0.677 ± 0.062 |
| SAPPLPPPPPPP | 0.682 ± 0.016 |
| GVSCIAEGRGGV | 0.6693 ± 0.0045 |

| Sequence | protein stability index |
| --- | --- |
| FAKELSLRSFSA | 0.814 ± 0.04 |
| QPSDTSHPHQPS | 0.692 ± 0.028 |
| RKKRNKTKIEKR | 0.719 ± 0.021 |
| RKKRERIREKKN | 0.494 ± 0.043 |
| ERKQKKKTKEKY | 0.682 ± 0.026 |
| PPPLPPPPPPPP | 0.673 ± 0.026 |
| AIRLFFRSDARG | 0.618 ± 0.014 |
| HILSPPPRPPLV | 0.719 ± 0.02 |
| PPPPAPSPPIPP | 0.692 ± 0.037 |
| TQNRCGGPSIAL | 0.634 ± 0.03 |
| KQMRIEYKTRNI | 0.604 ± 0.015 |
| VGMVTADGRLAT | 0.692 ± 0.043 |
| APPLSLPPRLFL | 0.69 ± 0.035 |
| PQRRPPASTRSD | 0.682 ± 0.018 |
| RRRLRSGYCCLV | 0.6861 ± 0.00091 |
| PHILMSFGSPLS | 0.729 ± 0.018 |
| FKSVPTLPHPSP | 0.6701 ± 0.0045 |
| EVNGNYNIVGKA | 0.652 ± 0.07 |
| WGLLCPLRSDNV | 0.705 ± 0.017 |
| DGTSKDSKWYMN | 0.747 ± 0.088 |
| EGDRWAGEVVRG | 0.705 ± 0.011 |
| VSEEFAGSGTKS | 0.67 ± 0.064 |
| QKKKKKIKEHSK | 0.626 ± 0.031 |
| VVLGQGRGVGAM | 0.669 ± 0.012 |
| LPSPSSTLSPLR | 0.674 ± 0.059 |
| CFDALLPEELSS | 0.696 ± 0.044 |

| Sequence | protein stability index |
| --- | --- |
| LVSSLVSSEVYM | 0.656 ± 0.019 |
| PLTNPPRSRKSS | 0.783 ± 0.12 |
| PHPCPTPPPLAP | 0.644 ± 0.043 |
| PPPDSPPLPAPP | 0.659 ± 0.033 |
| LFHFLSPVALPS | 0.6649 ± 0.0041 |
| GTSDPRGSGPAG | 0.715 ± 0.015 |
| PPPLLPPTLPPR | 0.713 ± 0.047 |
| LSYCVGFFSLVG | 0.6459 ± 0.0012 |
| PPAPPSQPINAT | 0.709 ± 0.053 |
| RASPFPAMSAQV | 0.684 ± 0.023 |
| RSMLRVELSGVA | 0.562 ± 0.031 |
| RPFLVGRISFSS | 0.693 ± 0.046 |
| DARGTVVEIRPG | 0.72 ± 0.19 |
| AGQWGCAGGGEW | 0.703 ± 0.013 |
| RLPAPPTVPLPP | 0.6 ± 0.042 |
| ARRPAESHGTTI | 0.716 ± 0.012 |
| AERARRERRGGV | 0.712 ± 0.1 |
| GARGGGRSRGTR | 0.779 ± 0.091 |
| ASNRVLRILLPR | 0.683 ± 0.05 |
| GGLGLVESVFVI | 0.67 ± 0.052 |
| SEYHGRAQKTGP | 0.744 ± 0.034 |
| TATRIPHTPIPL | 0.732 ± 0.037 |
| VICSIRGYNRLR | 0.711 ± 0.038 |
| LLFSRVDFSSPL | 0.804 ± 0.098 |
| LLVREVGVERTF | 0.7636 ± 0.0024 |
| CGWFSVGLMVGG | 0.485 ± 0.057 |

| Sequence | protein stability index |
| --- | --- |
| PPLNPPRSPFSP | 0.6814 ± 0.0018 |
| RDRAPLLNLACL | 0.689 ± 0.074 |
| RHSHSLSITHLP | 0.675 ± 0.091 |
| NAGHTGPYADGN | 0.669 ± 0.043 |
| LVGSGLFGWGWN | 0.769 ± 0.073 |
| PPPASLTSPRQP | 0.731 ± 0.013 |
| TRKESNTIHNEQ | 0.688 ± 0.014 |
| GSPLASSPSVID | 0.704 ± 0.041 |
| RPTPSHRTPSIG | 0.723 ± 0.016 |
| NKKDHTLTKKRT | 0.661 ± 0.063 |
| GRGVWEFGGGGG | 0.666 ± 0.056 |
| ALASPIPCPPPP | 0.715 ± 0.056 |
| GLYHGFCLSGCL | 0.678 ± 0.04 |
| RSDIANWFLCLS | 0.798 ± 0.037 |
| WRLDDPTLISNI | 0.693 ± 0.032 |
| SVLLRPPLLFHP | 0.722 ± 0.019 |
| SSLPAPSPVPSP | 0.731 ± 0.081 |
| KNKKKKINKNKK | 0.713 ± 0.067 |
| LDPHPFRGHACC | 0.779 ± 0.3 |
| RFPFSFSGFFLL | 0.5532 ± 0.0033 |
| IDLLTRKVDLFN | 0.66 ± 0.055 |
| RFDFSVTPHLGF | 0.668 ± 0.036 |
| KNDLHGLFLMSE | 0.648 ± 0.041 |
| SNLRSPFPSLPL | 0.714 ± 0.022 |
| SVARGGGVVEWG | 0.705 ± 0.13 |
| PAPPPSPPPRLA | 0.67 ± 0.075 |

| Sequence | protein stability index |
| --- | --- |
| RQSDPFCCSTHP | 0.7449 ± 0.0023 |
| CLLAPSSLASPI | 0.66 ± 0.043 |
| PVAPKPTGAKTP | 0.661 ± 0.06 |
| PTPPPLLTRPLP | 0.709 ± 0.11 |
| MCNLSLSCEGLG | 0.665 ± 0.045 |
| GWRGRRGERARG | 0.749 ± 0.054 |
| WSIEESLGIWLR | 0.538 ± 0.021 |
| PLPRPPPPANSP | 0.714 ± 0.063 |
| PPPQGSQPSTLS | 0.739 ± 0.051 |
| WVLGGVAPPAVL | 0.694 ± 0.048 |
| LKKKKNKKQKTE | 0.6152 ± 0.0053 |
| VSADGAGCAVRG | 0.709 ± 0.052 |
| LPPPSPPTPPFP | 0.691 ± 0.018 |
| LPLSLPTPPALD | 0.716 ± 0.075 |
| IKHKSKKNNCKK | 0.744 ± 0.052 |
| RHPTHPVSSLNP | 0.777 ± 0.05 |
| VVGAIRWGGGRR | 0.705 ± 0.014 |
| LWCPLPHGVLLL | 0.608 ± 0.053 |
| SPRPSVLPPLSL | 0.734 ± 0.011 |
| LFAKVVSGYDLG | 0.711 ± 0.024 |
| PPPPPPPHLPSL | 0.711 ± 0.079 |
| YFCGARSVGPGD | 0.717 ± 0.035 |
| YPTCPPPSARRV | 0.58 ± 0.025 |
| KGRLRVGAAGCD | 0.633 ± 0.011 |
| RRREGGQGERGK | 0.694 ± 0.087 |
| SEVGLSFGLVSF | 0.719 ± 0.032 |

| Sequence | protein stability index |
| --- | --- |
| PPPPLPDTLRSP | 0.6238 ± 0.0053 |
| PSPPPPTPPVRL | 0.722 ± 0.11 |
| PGFEPHLKLCAA | 0.654 ± 0.042 |
| PVDPPEDLNTRS | 0.7098 ± 0.0064 |
| PLRPPPPPLAPP | 0.697 ± 0.035 |
| APPRLSPLPPPP | 0.6848 ± 0.0065 |
| TSKYQENKQKKR | 0.7095 ± 0.0057 |
| FKRLSTDCSVNS | 0.687 ± 0.061 |
| RPPVGTPPLPHS | 0.66 ± 0.0091 |
| GWAVGVGGGRGR | 0.686 ± 0.017 |
| PRLVTLALPRTR | 0.716 ± 0.015 |
| MQSRWAQVEGKE | 0.673 ± 0.055 |
| PLRQRCIYDVPI | 0.7688 ± 0.0039 |
| RKSSAGLERATG | 0.685 ± 0.018 |
| NKRKKKRTEPQP | 0.661 ± 0.013 |
| EKKEVSLVKKGR | 0.695 ± 0.039 |
| SKKRKEKRTKEW | 0.63 ± 0.083 |
| GGGAGVRKWRKG | 0.703 ± 0.058 |
| LNPLAILCSSVF | 0.617 ± 0.037 |
| KTKERARTISRV | 0.721 ± 0.024 |
| SICSIRPFSDLP | 0.683 ± 0.015 |
| GGCGGGCGACVV | 0.701 ± 0.025 |
| PTPLSPRNTILR | 0.726 ± 0.1 |
| PPSRPPPRLLFA | 0.659 ± 0.048 |
| DCYSKLQSRKCG | 0.682 ± 0.018 |
| PTVLCTGKCLRS | 0.635 ± 0.044 |

| Sequence | protein stability index |
| --- | --- |
| KILNIKCLLANK | 0.686 ± 0.017 |
| SSCLRQGVGACG | 0.702 ± 0.018 |
| LMFGDPIEANKE | 0.67 ± 0.01 |
| GGGGGGVEPCFV | 0.668 ± 0.041 |
| KAEEKARGEDWQ | 0.681 ± 0.05 |
| LPPPPTFPPPRS | 0.8307 ± 0.0063 |
| PWFGSSPRLAAC | 0.7346 ± 0.0073 |
| AAALPSNLLSSF | 0.656 ± 0.017 |
| GFHSVVMTFLRY | 0.63 ± 0.017 |
| SPCARPPPFPAR | 0.724 ± 0.034 |
| CGRRGYIVRTFL | 0.658 ± 0.071 |
| PPPAPPLLPPLP | 0.718 ± 0.033 |
| VCVLGGVWGCRG | 0.66 ± 0.072 |
| GALIGNDGHVSG | 0.679 ± 0.027 |
| WDVGSHRGGFWL | 0.713 ± 0.02 |
| AFGSVSLSCLWV | 0.676 ± 0.073 |
| RKKKSNLMDDDD | 0.696 ± 0.031 |
| KLVVFPYIRPSP | 0.709 ± 0.021 |
| VPPRPAPRLRPP | 0.695 ± 0.07 |
| PPPPPPLVLSPL | 0.678 ± 0.02 |
| GGPRGPPMLIWE | 0.738 ± 0.037 |
| HRRMGVGGCLEE | 0.682 ± 0.046 |
| PLPSPSLLLHCP | 0.592 ± 0.0013 |
| ASRPPAPVPLPL | 0.686 ± 0.015 |
| VSYRLDMHFLYY | 0.6062 ± 0.0046 |
| EKKRRKKGEKRR | 0.712 ± 0.17 |

| Sequence | protein stability index |
| --- | --- |
| VKSAAGPGRRSS | 0.66 ± 0.015 |
| FPGSLVPVASVP | 0.71 ± 0.089 |
| VCVFFLFGYFRL | 0.562 ± 0.22 |
| QPYRQAKNQRLP | 0.728 ± 0.02 |
| PFIPRFFSPCPL | 0.673 ± 0.018 |
| TLARLISGKRLL | 0.648 ± 0.022 |
| SARSAARRWVRR | 0.694 ± 0.026 |
| SASLPSPCPDFG | 0.6703 ± 0.0021 |
| NRYRKNIKKRKK | 0.617 ± 0.028 |
| VSYLAQSFLPNL | 0.69928 ± 9.6e-05 |
| SRQDLPKYVYLY | 0.508 ± 0.016 |
| PPPPPPPLVPPL | 0.703 ± 0.12 |
| FRIVLIRASDPS | 0.625 ± 0.032 |
| NTDSIKKQKKKK | 0.675 ± 0.019 |
| LKNVKFTNNRKK | 0.694 ± 0.014 |
| DQAWYFVRLAGD | 0.766 ± 0.2 |
| HTSKFKKQRKKR | 0.7975 ± 0.0022 |
| TKKKTTNKIIKI | 0.671 ± 0.054 |
| PEHGPWLFKGFF | 0.653 ± 0.025 |
| PRPCSPPPPDPC | 0.703 ± 0.022 |
